Reference: publication PMC3314626, “Crystal Structures of the Tetratricopeptide Repeat Domains of Kinesin Light Chains: Insight into Cargo Recognition Mechanisms” (PLoS ONE, 2012)

Molecular target: KLC1 TPR domain (kinesin light chain 1 tetratricopeptide repeat domain) (human) (UniProt Q07866)
Assay: ITC; protein-protein: 15 uM KLC1-TPR and 160 uM ALC1 protein; 25 C; 30 mM HEPES 7.4, 200 mM NaCl, 0.5 mM TCEP; one-site binding model

## cytosolic domain of ALC1 protein (alcadein-1) (domain or fragment)
  Kd: 2.4 µM
  stoichiometry N: 0.85
